Results on four molecules are retold here after patent US11371056B2, “HPPD variants and methods of use” (BASF Agricultural Solutions Seed US LLC, priority 2017, dated 2022).

Numbering of substitutions follows the chain as printed.

In data set [1] the test system is soybean shoots. Put plainly: Soybean transformation, selection of shoots with tembotrione (greening or bleaching). The format is in vivo. The conditions noted are these: wild-type soybean shoots treated with tembotrione. From the text: Soybean transformation was achieved by using methods well known in the art, such as the one described using the Agrobacterium tumefaciens mediated transformation soybean half-seed explants using essentially the method described by Paz et al. (2006), Plant cell Rep. 25:206. Transformants were identified by using the HPPD inhibitor herbicide “tembotrione” as selection marker. The appearance of green shoots was observed, and documented as an indicator of tolerance to the HPPD inhibitor herbicide tembotrione.

The test system of data set [2] is Pseudomonas fluorescens HPPD polypeptide (wild-type and mutants). Put plainly: Coupled HPPD activity assay: turnover and residual turnover in crude HPPD polypeptide extracts with and without Cmpd. 1. It is filed as biochemical. The conditions noted are these: for Turnover: absence of Cmpd. 1; for Turnover / Residual turnover: changes in absorbance (OD) at 320 nm in the coupled assay, 30 min; for Residual turnover: presence of 100 μM Cmpd. 1.

For data set [3], the system named is soybean plants (transgenic T0 events, wild-type). Put plainly: Greenhouse spray test of T0 soybean events with Cmpd. 1, leaf area damage score. The arrangement: key to leaf area damage score, 25th percentile / leaf area damage score, Interquartile range: damage score 0 (no damage) to 100 (complete bleaching). The conditions noted are these: for leaf area damage score, 25th percentile / leaf area damage score, 75th percentile / leaf area damage score, 90th percentile / leaf area damage score, Median: T0 soybean events expressing the polypeptide; for leaf area damage score, 25th percentile / leaf area damage score, 75th percentile / leaf area damage score, 90th percentile / leaf area damage score, Median / leaf area damage score, Interquartile range: five days after application of Cmpd. 1 at 300 g AI/ha; for leaf area damage score, 75th percentile / leaf area damage score, 90th percentile / leaf area damage score, Median: scale 0 to 100; for leaf area damage score, Median: 50th percentile; for leaf area damage score, Interquartile range: difference between 75th and 25th percentile, T0 soybean events. It is filed as in vivo. The text has this:
Tolerant green shoots were transferred to rooting media or grafted. Rooted plantlets were transferred to the greenhouse after an acclimation period. Plants containing the transgene were then sprayed with HPPD inhibitor herbicides, as for example with mesotrione at a rate of 300-600 g AI/ha, or with Cmpd. 1 (2-chloro-3-(methylsulfanyl)-N-(1-methyl-1H-tetrazol-5-yl)-4-(trifluoromethyl)benzamide) at a rate of 150 g-300 g AI/ha supplemented with ammonium sulfate and methyl ester rapeseed oil. Five to ten days after the application, the symptoms due to the application of the herbicide were evaluated and compared to the symptoms observed on wild-type plants under the same conditions.
For example, T0 soybean plants having a “plant expression cassette”, which includes an HPPD inhibitor tolerant HPPD polypeptide of the present invention, were tested towards the tolerance of Cmpd. 1.
Prior greenhouse trials with the transgenic plants, soybean transformants were routinely analyzed for the expression and presence of the transgenes using the ELISA protein detection method (see detailed description under item D and H). Only plants recovering in the selection media and having a detectable HPPD transgene protein expression were used for the herbicide tolerance analysis. A DeVries Tracker Sprayer was calibrated prior to each spraying. The chemical formulation used for Cmpd. 1 was supplemented with ammonium sulfate and methylated rape seed oil. Spray tests were conducted with a concentration, which equals to 300 grams AI per hectare (300 g AI/ha).
In greenhouse trials, independent T0 soybean events containing an exemplary mutant HPPD polypeptide were sprayed with the HPPD inhibitor herbicide Cmpd. 1 (2-chloro-3-(methylsulfanyl)-N-(1-methyl-1H-tetrazol-5-yl)-4-(trifluoromethyl)benzamide) at the rate of 300 grams AI/ha, supplemented with ammonium sulfate and methyl ester rapeseed oil. Five days after the application, the leaf damaged area due to the HPPD inhibitor herbicide is scored in a scale from 0 (no damage) to 100 (complete bleaching). Under those conditions, the wild-type plants were completely bleached and their damage scores were in the 95-100 range.
Table 5 presents the distribution of the HPPD inhibitor herbicide damage score data as percentile for exemplary mutant HPPD inhibitor herbicide tolerant polypeptides (SEQ ID NOs). The percentiles normalize ranks of the damage score from an individual plant in a population. […] The median is the 50th percentile. Half the values had higher damage scores; half had lower damage scores. The value of the 75th and 90th percentile is the damage score where 75% and 90% of the soybean events had lower damage scores, respectively. The difference between the 75th and 25th percentile is called the interquartile range and a marker to quantify scattering in the population. All constructs had only one single cassette insertion in the soybean genome.

[4] abbreviates: scale 0 (no damage) to 100 (complete bleaching).

Take `CS(=O)(=O)c1ccc(C(=O)C2C(=O)CCCC2=O)c(Cl)c1COCC(F)(F)F` [tembotrione, 2-[2-chloro-4-(methylsulfonyl)-3-[(2,2,2,-trifluoroethoxy)methyl]benzoyl]-1,3-cyclohexanedione]: the bleaching of shoots result in data set [1] is given as “entirely bleached”.

On to `CSc1c(C(F)(F)F)ccc(C(=O)Nc2nnnn2C)c1Cl` [Cmpd. 1, 2-chloro-3-(methylsulfanyl)-N-(1-methyl-1H-tetrazol-5-yl)-4-(trifluoromethyl)benzamide, reference compound], for which, in data set [2], the Turnover was 0.236 and the Residual turnover came to 0.042. Also, the damage scores in data set [3] (wild-type soybean plants, Cmpd. 1 300 g AI/ha, five days after application, scale 0 (no damage) to 100 (complete bleaching)) is listed as 95-100.

B1: SEQ ID NO:62: mutant HPPD polypeptide: 213K 215A 264L 268G 270E 315Q 335P 336D 337S 340V 344Q 345M (protein)
chain: MADLYENPMGLMGFEFIEFASPTPGTLEPIFEIMGFTKVATHRSKNVHLYRQGEINLILNNEPNSIASYFAAEHGPSVCGMAFRVKDSQKAYNRALELGAQPIHIDTGPMELNLPAIKGIGGAPLYLIDRFGEGSSIYDIDFVYLEGVERNPVGAGLKVIDHLTHNVYRGRMVYWANFYEKLFNFREARYFDIKGEYTGLTSKAMSAPDGMIKIALNEESSKGAGQIEEFLMQFNGEGIQHVAFLTDDLVKTWDALKKIGMRFLTAPGDEYYEMLEGRLPDHGEPVDQLQARGILLDGSSVEGDKRLLLQIFSEQLMGPVFFEFIQRKGDDGFGPDSFKVLFEQMERDQVRRGVLTAD
modifications: mutant HPPD polypeptide
notes: mutant HPPD polypeptide: 213K 215A 264L 268G 270E 315Q 335P 336D 337S 340V 344Q 345M
With B1, the “turnover and residual turnover, comparison in words” value in data set [2] (100 μM Cmpd. 1, Table 3) was “increase significantly the turnover and the residual turnover”. In data set [2] (100 μM Cmpd. 1, normalised to turnover without inhibitor), the “Residual turnover [%]” value worked out at 79%. For the same molecule, in data set [2], the Turnover was found to be 0.209 and the Residual turnover is 0.166. The “leaf area damage score, 25th percentile” value in data set [3] (setting [4]) was found to be 10.0. For the same molecule, in data set [3], the “leaf area damage score, 75th percentile” value worked out at 25.0; the “leaf area damage score, 90th percentile” value turned out to be 35.0; the “leaf area damage score, Median” value is recorded as 15.0; the “leaf area damage score, Interquartile range” value is given as 15.0.

B2: SEQ ID NO: 43 (protein)
chain: B1 chain with A215P, L264M, Q315K, D336H, Q344S
modifications: mutant HPPD polypeptide
On to B2, for which, in data set [3] (setting [4]), the “leaf area damage score, 25th percentile” value is recorded as 10.0. Further, in data set [3], the “leaf area damage score, 75th percentile” value was determined as 25.0; the “leaf area damage score, 90th percentile” value worked out at 35.0; the “leaf area damage score, Median” value was 10.0; the “leaf area damage score, Interquartile range” value is given as 15.0.
